Columns and labels:
4H2873-AA = molecular target: T1, 4H2873-AA; assay: two-hybrid library CCmax; details: mean of both orientations;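 also: natural log of median RNA to DNA barcode read ratio; higher means stronger binding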
T1 chain: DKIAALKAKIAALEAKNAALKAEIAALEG

4H2512-AA = molecular target: T2, 4H2512-AA; assay: two-hybrid library CCmax; details: mean of both orientations;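 also: natural log of median RNA to DNA barcode read ratio; higher means stronger binding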
T2 chain: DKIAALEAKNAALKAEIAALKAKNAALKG

4H3409-AA = molecular target: T3, 4H3409-AA; assay: two-hybrid library CCmax; details: mean of both orientations;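 also: natural log of median RNA to DNA barcode read ratio; higher means stronger binding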
T3 chain: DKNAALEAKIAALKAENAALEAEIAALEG

4H816-AA = molecular target: T4, 4H816-AA; assay: two-hybrid library CCmax; details: mean of both orientations;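 also: natural log of median RNA to DNA barcode read ratio; higher means stronger binding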
T4 chain: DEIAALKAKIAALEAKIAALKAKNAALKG

4H233-AA = molecular target: T5, 4H233-AA; assay: two-hybrid library CCmax; details: mean of both orientations;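 also: natural log of median RNA to DNA barcode read ratio; higher means stronger binding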
T5 chain: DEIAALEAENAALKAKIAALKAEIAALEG

4H2646-AA = molecular target: T6, 4H2646-AA; assay: two-hybrid library CCmax; details: mean of both orientations;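 also: natural log of median RNA to DNA barcode read ratio; higher means stronger binding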
T6 chain: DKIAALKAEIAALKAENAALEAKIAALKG

4H2758-AA = molecular target: T7, 4H2758-AA; assay: two-hybrid library CCmax; details: mean of both orientations
T7 chain: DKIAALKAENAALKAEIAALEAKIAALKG

4H510-AA = molecular target: T8, 4H510-AA; assay: two-hybrid library CCmax; details: mean of both orientations
T8 chain: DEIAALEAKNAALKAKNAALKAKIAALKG

4H278-AA = molecular target: T9, 4H278-AA; assay: two-hybrid library CCmax; details: mean of both orientations
T9 chain: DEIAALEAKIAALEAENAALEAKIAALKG

4H775-AA = molecular target: T10, 4H775-AA; assay: two-hybrid library CCmax
T10 chain: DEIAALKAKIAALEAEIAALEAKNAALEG

4H2187-AA = molecular target: T11, 4H2187-AA; assay: two-hybrid library CCmax
T11 chain: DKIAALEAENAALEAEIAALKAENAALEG

4H3625-AA = molecular target: T12, 4H3625-AA; assay: two-hybrid library CCmax; details: mean of both orientations
T12 chain: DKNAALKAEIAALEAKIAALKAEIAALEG

4H87-AA = molecular target: T13, 4H87-AA; assay: two-hybrid library CCmax; details: mean of both orientations
T13 chain: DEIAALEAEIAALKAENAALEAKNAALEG

4H2705-AA = molecular target: T14, 4H2705-AA; assay: two-hybrid library CCmax; details: mean of both orientations
T14 chain: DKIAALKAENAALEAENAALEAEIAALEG

4H390-AA = molecular target: T15, 4H390-AA; assay: two-hybrid library CCmax; details: mean of both orientations
T15 chain: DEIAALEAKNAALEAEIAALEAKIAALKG

4H3940-AA = molecular target: T16, 4H3940-AA; assay: two-hybrid library CCmax; details: mean of both orientations
T16 chain: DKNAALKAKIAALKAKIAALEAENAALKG

4H2687-AA = molecular target: T17, 4H2687-AA; assay: two-hybrid library CCmax; details: mean of both orientations
T17 chain: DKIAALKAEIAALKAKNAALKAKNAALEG

4H2985-AA = molecular target: T18, 4H2985-AA; assay: two-hybrid library CCmax; details: mean of both orientations
T18 chain: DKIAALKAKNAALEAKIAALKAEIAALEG

4H3134-AA = molecular target: T19, 4H3134-AA; assay: two-hybrid library CCmax; details: mean of both orientations
T19 chain: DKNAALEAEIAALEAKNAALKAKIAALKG

P6A-bP = molecular target: T20, P6A-bP; assay: two-hybrid library CCNG1
T20 chain: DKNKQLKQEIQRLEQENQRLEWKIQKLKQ

P9A-bP = molecular target: T21, P9A-bP; assay: two-hybrid library CCNG1
T21 chain: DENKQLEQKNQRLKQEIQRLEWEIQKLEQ

P4A-bP = molecular target: T22, P4A-bP; assay: two-hybrid library CCNG1
T22 chain: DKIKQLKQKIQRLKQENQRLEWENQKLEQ

P5A-bP = molecular target: T23, P5A-bP; assay: two-hybrid library CCNG1
T23 chain: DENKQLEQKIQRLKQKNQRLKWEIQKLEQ

P8A-bP = molecular target: T24, P8A-bP; assay: two-hybrid library CCNG1
T24 chain: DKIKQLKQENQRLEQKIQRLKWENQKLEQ

P7A-bP = molecular target: T25, P7A-bP; assay: two-hybrid library CCNG1
T25 chain: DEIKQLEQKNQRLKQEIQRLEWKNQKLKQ

P3A-bP = molecular target: T26, P3A-bP; assay: two-hybrid library CCNG1
T26 chain: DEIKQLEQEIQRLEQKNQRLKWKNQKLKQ

B1: 4H2187-AA (peptide)
chain: DKIAALEAENAALEAEIAALKAENAALEG
interaction score (4H2873-AA): 0.406 | interaction score (4H2512-AA): 2.24 | interaction score (4H3409-AA): -1.46 | interaction score (4H816-AA): -0.683 | interaction score (4H233-AA): -0.428 | interaction score (4H2646-AA): -1.38 | interaction score (4H2758-AA): 0.853 | interaction score (4H510-AA): 0.192 | interaction score (4H278-AA): -0.772 | interaction score (4H775-AA): -1.71 | interaction score (4H2187-AA): -0.477 | interaction score (4H3625-AA): -1.12 | interaction score (4H87-AA): -2.2 | interaction score (4H2705-AA): -1.68 | interaction score (4H390-AA): 0.639 | interaction score (4H3940-AA): -1.38 | interaction score (4H2687-AA): -0.754 | interaction score (4H2985-AA): -0.684 | interaction score (4H3134-AA): 1.47

B2: P3A-bP (peptide)
chain: DEIKQLEQEIQRLEQKNQRLKWKNQKLKQ
interaction score (P6A-bP): -0.316 | interaction score (P9A-bP): -0.126 | interaction score (P4A-bP): 0.89 | interaction score (P5A-bP): -0.806 | interaction score (P8A-bP): -0.641 | interaction score (P7A-bP): -0.807 | interaction score (P3A-bP): -0.848

Source: article PMC10397247
